B1: Azoarcus group I ribozyme (parent)
chain: GUGCCUUGCGCCGGGAAACCACGCAAGGGAUGGUGUCAAAUUCGGCGAAACCUAAGCGCCCGCCCGGGCGUAUGGCAACGCCGAGCCAAGCUUCGGCGCCUGCGCCGAUGAAGGUGUAGAGACUAGACGGCACCCACCUAAGGCAAACGCUAUGGUGAAGGCAUAGUCCAGGGAGUGGCGAAAGUCACACAAACCGG

The data set covers variants of B1. The data set can be described thus: reverse-splicing fitness (ratio to wild type); higher = more active; in vitro selection; Mg2+ level not given. The method in brief: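 An in vitro group I ribozyme library with randomized positions was T7-transcribed and gel-purified. In triplicate, 10 pmol RNA in EPPS pH 7.5 was reacted with 50 pmoles of a 30-nt RNA substrate for 1 h at 37 °C across several added MgCl2 levels (1–48 mM), then stopped with EDTA. Products were reverse transcribed from a substrate-complementary primer, PCR-amplified and sequenced (HiSeq 4000). Fitness is a variant's read proportion after selection over that before, normalised to wild type.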
Take GUGCCUUGCGCCGGGAAACCACGCAAGGGAUGGUGUCAAAUUCGGCGAAACCUAAGCGCCCGCCCGGGCGUAUGGCAACGCGGAGCCAAGCUUCGGCGCCUGCGCCGAUGUAGGUGUAGUGACUAGACGGCACCCACCUAAGGCUAACGCUAUGGUGAAGGCAUAGUCUAGGGAGCGGCGAAAGUCACACAAACCGG: the reverse-splicing fitness was determined as 0.00275.
Regarding GUGCCUUGCGCCGGGAAACCACGCAAGGGAUGGUGUCAAAUUCGGCGAAACCUAAGCGCCCGCCCGGGCGUAUGGCAACGCGGAGCCAAGCUUCGGCGCCUGCGCCGAUGUAGGUGUAGUGACUAGACGGCACCCACCUAAGGCUAACGCUAUGGUGAAGGCAUAGUCUAGGGAGGGGCGAAAGUCACACAAACCGG, the reverse-splicing fitness is 0.00177.
Next, GUGCCUUGCGCCGGGAAACCACGCAAGGGAUGGUGUCAAAUUCGGCGAAACCUAAGCGCCCGCCCGGGCGUAUGGCAACGCGGAGCCAAGCUUCGGCGCCUGCGCCGAUGUAGGUGUAGUGACUAGACGGCACCCACCUAAGGCUAACGCUAUGGUGAAGGCAUAGUCUAGGGAGAGGCGAAAGUCACACAAACCGG: 0.00233; GUGCCUUGCGCCGGGAAACCACGCAAGGGAUGGUGUCAAAUUCGGCGAAACCUAAGCGCCCGCCCGGGCGUAUGGCAACGCGGAGCCAAGCUUCGGCGCCUGCGCCGAUGUAGGUGUAGUGACUAGACGGCACCCACCUAAGGCUAACGCUAUGGUGAAGGCAUAGUCGAGGGAGAGGCGAAAGUCACACAAACCGG: 0.00265.
As to GUGCCUUGCGCCGGGAAACCACGCAAGGGAUGGUGUCAAAUUCGGCGAAACCUAAGCGCCCGCCCGGGCGUAUGGCAACGCGGAGCCAAGCUUCGGCGCCUGCGCCGAUGUAGGUGUAGUGACUAGACGGCACCCACCUAAGGCUAACGCUAUGGUGAAGGCAUAGUCGAGGGAGGGGCGAAAGUCACACAAACCGG, the reverse-splicing fitness amounted to 0.00186.
Next, GUGCCUUGCGCCGGGAAACCACGCAAGGGAUGGUGUCAAAUUCGGCGAAACCUAAGCGCCCGCCCGGGCGUAUGGCAACGCGGAGCCAAGCUUCGGCGCCUGCGCCGAUGUAGGUGUAGUGACUAGACGGCACCCACCUAAGGCUAACGCUAUGGUGAAGGCAUAGUCGAGGGAGCGGCGAAAGUCACACAAACCGG: 0.0026; GUGCCUUGCGCCGGGAAACCACGCAAGGGAUGGUGUCAAAUUCGGCGAAACCUAAGCGCCCGCCCGGGCGUAUGGCAACGCGGAGCCAAGCUUCGGCGCCUGCGCCGAUGUAGGUGUAGUGACUAGACGGCACCCACCUAAGGCAAACGAUAUGGUGAAGGCAUAGUCCAGGGAGUGGCGAAAGUCACACAAACCGG: 0.00965; GUGCCUUGCGCCGGGAAACCACGCAAGGGAUGGUGUCAAAUUCGGCGAAACCUAAGCGCCCGCCCGGGCGUAUGGCAACGCGGAGCCAAGCUUCGGCGCCUGCGCCGAUGUAGGUGUAGUGACUAGACGGCACCCACCUAAGGCUAACGCUAUGGUGAAGGCAUAGUCCAGGGAGGGGCGAAAGUCACACAAACCGG: 0.00425.
To GUGCCUUGCGCCGGGAAACCACGCAAGGGAUGGUGUCAAAUUCGGCGAAACCUAAGCGCCCGCCCGGGCGUAUGGCAACGCGGAGCCAAGCUUCGGCGCCUGCGCCGAUGUAGGUGUAGUGACUAGACGGCACCCACCUAAGGCUAACGCUAUGGUGAAGGCAUAGUCCAGGGAGCGGCGAAAGUCACACAAACCGG belongs 0.0192; to GUGCCUUGCGCCGGGAAACCACGCAAGGGAUGGUGUCAAAUUCGGCGAAACCUAAGCGCCCGCCCGGGCGUAUGGCAACGCGGAGCCAAGCUUCGGCGCCUGCGCCGAUGUAGGUGUAGUGACUAGACGGCACCCACCUAAGGCUAACGCUAUGGUGAAGGCAUAGUCCAGGGAGAGGCGAAAGUCACACAAACCGG, 0.0108.
For GUGCCUUGCGCCGGGAAACCACGCAAGGGAUGGUGUCAAAUUCGGCGAAACCUAAGCGCCCGCCCGGGCGUAUGGCAACGCGGAGCCAAGCUUCGGCGCCUGCGCCGAUGUAGGUGUAGUGACUAGACGGCACCCACCUAAGGCUAACGCUAUGGUGAAGGCAUAGUCAAGGGAGAGGCGAAAGUCACACAAACCGG, the reverse-splicing fitness was determined as 0.00292.
Next, GUGCCUUGCGCCGGGAAACCACGCAAGGGAUGGUGUCAAAUUCGGCGAAACCUAAGCGCCCGCCCGGGCGUAUGGCAACGCGGAGCCAAGCUUCGGCGCCUGCGCCGAUGUAGGUGUAGUGACUAGACGGCACCCACCUAAGGCUAACGCUAUGGUGAAGGCAUAGUCAAGGGAGCGGCGAAAGUCACACAAACCGG: 0.00203.
To GUGCCUUGCGCCGGGAAACCACGCAAGGGAUGGUGUCAAAUUCGGCGAAACCUAAGCGCCCGCCCGGGCGUAUGGCAACGCGGAGCCAAGCUUCGGCGCCUGCGCCGAUGUAGGUGUAGUGACUAGACGGCACCCACCUAAGGCUAACGCUAUGGUGAAGGCAUAGUCAAGGGAGGGGCGAAAGUCACACAAACCGG belongs 0.00176; to GUGCCUUGCGCCGGGAAACCACGCAAGGGAUGGUGUCAAAUUCGGCGAAACCUAAGCGCCCGCCCGGGCGUAUGGCAACGCGGAGCCAAGCUUCGGCGCCUGCGCCGAUGUAGGUGUAGUGACUAGACGGCACCCACCUAAGGCUAACGCUAUGGUGAAGGCAUAGUCUAGGGAGUGGCGAAAGUCACACAAACCGG, 0.00419.
To GUGCCUUGCGCCGGGAAACCACGCAAGGGAUGGUGUCAAAUUCGGCGAAACCUAAGCGCCCGCCCGGGCGUAUGGCAACGCGGAGCCAAGCUUCGGCGCCUGCGCCGAUGUAGGUGUAGUGACUAGACGGCACCCACCUAAGGCUAACGCUAUGGUGAAGGCAUAGUCGAGGGAGUGGCGAAAGUCACACAAACCGG belongs 0.00331.

Values taken from the RNAGym collection of RNA variant scans (doi:10.1093/molbev/msab373).
